Where two headings read alike, the source gives them in different places.
How the values were obtained:
human BCMA (on cells) [1] = biological target: T1, human BCMA (on cells) (human, UniProt Q02223 1-184); test: FACS, human BCMA-CHOK1 cells, anti-human IgG Fc PE secondary, MFI
T1 construct: Full length, on transfected CHOK1 cells; also used as the target of the BCMA/CD3 bispecific Teclistamab on NCI-H929 and RPMI8226 cells; also called Human BCMA CHOK1
T1 sequence: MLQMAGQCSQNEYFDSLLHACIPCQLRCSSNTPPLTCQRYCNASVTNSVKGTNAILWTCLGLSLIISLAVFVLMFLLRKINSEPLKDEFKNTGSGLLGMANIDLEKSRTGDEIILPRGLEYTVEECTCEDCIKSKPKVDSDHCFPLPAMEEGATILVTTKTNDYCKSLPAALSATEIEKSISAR

human BCMA (on cells) [2] = biological target: T1, human BCMA (on cells); test: as above; remark: listed apart in the source
[3] = biological target: T2, cynomolgus monkey BCMA (on cells) (cynomolgus monkey, UniProt Q02223 1-184 (human entry)); test: FACS, cynomolgus monkey BCMA-CHOK1 cells, anti-human IgG Fc PE secondary, MFI
T2 construct: also called cyno-BCMA; cyno BCMA CHOK1

human BCMA (on cells) [4] = biological target: T1, human BCMA (on cells); test: FACS on human BCMA-CHOK1 cells
[5] = biological target: T2, cynomolgus monkey BCMA (on cells); test: FACS on cynomolgus BCMA-CHOK1 cells

T2 sequence (Q02223 other isoform, or with tags, fused parts or gaps): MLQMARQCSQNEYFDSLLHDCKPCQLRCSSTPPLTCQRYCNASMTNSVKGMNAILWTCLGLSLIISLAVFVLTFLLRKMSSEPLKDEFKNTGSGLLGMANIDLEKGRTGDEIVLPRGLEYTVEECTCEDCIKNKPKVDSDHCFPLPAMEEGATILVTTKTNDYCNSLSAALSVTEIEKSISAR

B1: 19CH-16 (antibody, IgG1, V domains shown)
VH: QGQMQQSGAELVKPGTSVKLSCKTSGFTFRSSYISWLQQKPGQSLEWIAWIYAGSGNTDYNQKFTGKAQLTVDTSSSTAYMQFSSLTTEDSAIYYCARHYDPPHYFDYWGQGTTLTVSS
VL: QIVLTQSPAIMSASPGEKVTMTCSASSGVSHMHWYQQKSGTSPKRWIYDTSKLTSGVPTRFSGTGSGTSYSLSISSMEAEDAATYYCQQWSRNPWTFGGGTKLEIK
notes: also called anti-BCMA chimeric antibody (19CH-16) derived from mouse hybridoma
Q: With B1 as the binder, how does the “EC50 (read off the curve)” value (human BCMA (on cells) [1]) read?
A: Its value is about 2 nM.

B2: 19CH-16H2L2 (antibody, IgG1, V domains shown)
VH: QVQLVQSGAEVKKPGASVKVSCKASGFTFRSSYISWVRQAPGQGLEWIAWIYAGSGNTDYNQKFTGRVTMTVDTSTSTVYMELSSLRSEDTAVYYCARHYDPPHYFDYWGQGTLVTVSS
VL: DIQLTQSPSSLSASVGDRVTITCSASSGVSHMHWYQQKPGKAPKRWIYDTSKLTSGVPSRFSGSGSGTDFTLTISSLQPEDFATYYCQQWSRNPWTFGQGTKVEIK
notes: also called humanized anti-BCMA antibody (19CH-16H2L2)
Q: Which “EC50 (read off the curve)” value (human BCMA (on cells) [2]) does the source give for B2 here?
A: Its value is about 1 nM.

Q: What about the “EC50 (read off the curve)” value [3] of the same binder?
A: Its value is about 3 nM.

B3: 19CH-16H2L2-QT (antibody, V domains shown)
VH: QVQLVQSGAEVKKPGASVKVSCKASGFTFRSSYISWVRQAPGQGLEWIAWIYAGSGQTDYNQKFTGRVTMTVDTSTSTVYMELSSLRSEDTAVYYCARHYDPPHYFDYWGQGTLVTVSS
VL: DIQLTQSPSSLSASVGDRVTITCSASSGVSHMHWYQQKPGKAPKRWIYDTSKLTSGVPSRFSGSGSGTDFTLTISSLQPEDFATYYCQQWSRNPWTFGQGTKVEIK
Q: With B3 as the binder, how does the EC50 (human BCMA (on cells) [4]) read?
A: The EC50 was 7.76 nM.

Q: And the EC50 [5]?
A: The EC50 was 9.05 nM.

Source: patent US20260234241A1 (SHANGHAI QILU PHARMACEUTICAL RESEARCH AND DEVELOPMENT CENTRE, published 2026)
